In experiment [1] the target is T1, human CD40 on cells (native CD40 on Ramos cells, human B cells, human monocyte-derived dendritic cells); cell … (human, UniProt P25942 21-193).
T1 construct: Endogenous CD40 on human cells; also called native CD40 protein; CD40 positive cells
The experiment can be described thus: FACS on live Ramos cells, goat anti-human IgG PE. How it is done: In another experiment, the ability of the CD40 antibodies to bind to native CD40 protein was determined by FACS analysis with live Ramos cells. Ramos cells were harvested and blocked with 1.5 ml blocking buffer (0.1% BSA/PBS) for 30 minutes. Antibodies at various concentrations were added to cells and incubated for 1 hour. After washing, 50 ul Goat-anti-human IgG (H+L) PE antibody at 1:1000 dilution in blocking solution was added and incubated for 30 minutes. Cells were then washed with PBS and were re-suspended with […] and analyzed by FACS. The antibodies tested were the 19-21 rabbit anti-CD40 agonist antibody, SGN-40 developed by Seattle Genetics and CP870893 from Pfizer.

The target in experiment [2] is T2, mouse CD40 on mouse A20 cells (mouse, UniProt P27512 20-289).
T2 construct: whole, on cells
T2 sequence (P27512 20-289): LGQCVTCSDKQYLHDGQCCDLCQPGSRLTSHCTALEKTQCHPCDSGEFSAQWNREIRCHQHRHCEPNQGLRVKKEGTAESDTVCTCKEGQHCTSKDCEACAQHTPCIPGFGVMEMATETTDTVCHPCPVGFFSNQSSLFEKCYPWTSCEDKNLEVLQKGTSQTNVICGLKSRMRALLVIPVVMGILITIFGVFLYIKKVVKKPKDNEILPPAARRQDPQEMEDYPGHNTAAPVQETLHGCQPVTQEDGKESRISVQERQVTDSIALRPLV
The experiment can be described thus: FACS on mouse A20 cells, goat anti-human IgG (H+L) R-PE. The method, then:
Cross-reactivity of APX005 with mouse CD40 was further determined by FACS binding to a mouse A20 cell line which expresses mouse CD40. An aliquot of 0.5×10⁶ A20 cells was added to 96 well plates and incubated with 100 μl diluted rat anti-mouse CD40 antibody conjugated with PE, APX005 or IgG1 control antibodies. After washing, 100 μl Goat-anti human IgG (H+L) conjugated with R-PE (Southern Biotech CAT #2040-09) were added at 1:200 dilution in PBS to the sample and incubated for detection of APX005 and control human IgG1. A rat anti-mouse CD40 antibody conjugated with PE was used as positive control. Samples were re-suspended with 0.5 ml PBS and analyzed by FACS.

Experiment [3] has as its target T3, fusion protein of rabbit Fc and TweakR (UniProt Q9NP84 28-80, limits assumed).
T3 construct: Neither the species nor the order of the parts is stated; not shown: rabbit Fc
Briefly: direct ELISA, 1 ug/ml rabbit Fc-TweakR fusion coated, goat anti-human IgG-HRP. How it is done: (§1) Binding selectivity of APX005 was assessed by direct ELISA to a panel of TNFR family proteins. A total of 1 μg/ml of fusion protein of rabbit Fc and CD40, RANK, TweakR, OX40, DR5 and 4-1 BB were coated on ELISA plates. Bound APX005 was detected using goat anti-human HRP-conjugated IgG.
In general terms: An ELISA detects its analyte on a solid surface through an enzyme-linked reagent.

Experiment [4] concerns the target T4, CD40 CLIPS peptide, residues 84-102 of CD40 (84TCEEGWHCTSEACESCVLH102) (human, linker (positions not given here) via CLIPS template (1,3-bis(bromomethyl)benzene); also: cysteine side chains coupled to CLIPS template(s), solid-phase bound peptide of Pepscan array).
T4 construct: It is the unmutated control peptide of the mutagenesis set
T4 peptide: TCEEGWHCTSEACESCVLH
Briefly: PEPSCAN-based ELISA on solid-phase CLIPS peptides. The source says: To reconstruct discontinuous epitopes of the target molecule a library of structured peptides was synthesized. This was done using Pepscan's proprietary Chemically Linked Peptides on Scaffolds (CLIPS™) technology (Pepscan Presto, Lelystad The Netherlands) (see e.g., Timmerman et al. (2007). J. Mol. Recognit. 20:283-99; Slootstra et al. (1996). Molecular Diversity 1: 87-96). CLIPS™ technology provides the ability to structure peptides into single loops, double-loops, triple loops, sheet-like folds, helix-like folds and combinations thereof. CLIPS™ templates are coupled to cysteine residues. For this experiment, the side-chains of multiple cysteines in the peptides were coupled to one or two CLIPS™ templates. […]
The binding of antibody to each of the synthesized peptides was tested in a PEPSCAN-based ELISA. […] After one hour, the color development was measured. The color development was quantified with a charge coupled device (CCD)—camera and an image processing system.

The target in experiment [5] is T5, fusion protein of rabbit Fc and 4-1 BB (UniProt Q07011 24-186).
T5 construct: Neither the species nor the order of the parts is stated; not shown: rabbit Fc
T5 sequence (Q07011 24-186): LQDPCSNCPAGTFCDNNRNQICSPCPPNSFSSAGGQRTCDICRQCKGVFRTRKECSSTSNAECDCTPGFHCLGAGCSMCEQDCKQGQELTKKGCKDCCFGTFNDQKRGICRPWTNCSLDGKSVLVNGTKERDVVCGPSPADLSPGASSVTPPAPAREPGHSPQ
The experiment can be described thus: direct ELISA, 1 ug/ml rabbit Fc-4-1BB fusion coated, goat anti-human IgG-HRP. The method, then:
as §1

No end group written: not given here.

T1 sequence (P25942 21-193): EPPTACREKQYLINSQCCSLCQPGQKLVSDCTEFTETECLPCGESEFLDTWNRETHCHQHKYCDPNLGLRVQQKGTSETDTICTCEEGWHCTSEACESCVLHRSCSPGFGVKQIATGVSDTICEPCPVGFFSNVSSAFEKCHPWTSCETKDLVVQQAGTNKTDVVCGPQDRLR

B1: APX005, humanized version of the R-8 rabbit anti-CD40 antibody (antibody, IgG1, V domains shown)
VH: QVQLVESGGGVVQPGRSLRLSCAASGFSFSSTYVCWVRQAPGKGLEWIACIYTGDGTNYSASWAKGRFTISKDSSKNTVYLQMNSLRAEDTAVYFCARPDITYGFAINFWGPGTLVTVSS
VL: DIQMTQSPSSLSASVGDRVTIKCQASQSISSRLAWYQQKPGKPPKLLIYRASTLASGVPSRFSGSGSGTDFTLTISSLQPEDVATYYCQCTGYGISWPIGGGTKVEIK
notes: also called humanized R-8; APX005 wild type
With B1, the “fold higher affinity than CP870893” value in experiment [1] was found to be 6 fold. The binding result in experiment [2] is “no binding (tested: 10000 ng/ml)”; in experiment [3] it was “no binding”; in experiment [4], “binds”; in experiment [5] it was “no binding”.

For the origin of these results see patent publication US20230406948A1 (APEXIGEN, published 2023).
